This passage reports G→A exchanges per 100 nucleotides in FFV genomes with fe3 coexpressed (G→A exchanges per 100 nucleotides), reduction of FFV titer (FeFAB reporter cells) on cotransfection of pfe3 and Bet-mediated rescue of marker gene transduction in the presence of different APOBEC3 molecules results from patent US20110294219A1.

Where only a bound is given, the exact number is not on record here.

Common to all, as to assay: cell-based or functional assay
Assay [1] deals with C-terminal HA-tagged feline APOBEC3 (feline).
C-terminal HA-tagged feline APOBEC3 (feline), sequence (Q4VDN5 whole entry): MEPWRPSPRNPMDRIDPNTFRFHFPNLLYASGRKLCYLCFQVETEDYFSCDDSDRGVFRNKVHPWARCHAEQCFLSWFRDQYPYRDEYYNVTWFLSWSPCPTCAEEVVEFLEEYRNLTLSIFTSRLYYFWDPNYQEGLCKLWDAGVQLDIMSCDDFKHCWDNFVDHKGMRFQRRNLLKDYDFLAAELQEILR
Another assay deals with feline APOBEC3 (feline).
Assay [2] addresses different primate APOBEC3 proteins (e.g. from chimpanzee, African green monkey, human).

As to “feline foamy virus (FFV) Bet protein (from UniProt Q8NFT8)”, the G→A exchanges per 100 nucleotides in FFV genomes with fe3 coexpressed (G→A exchanges per 100 nucleotides) in assay [1] came to 0.05. The molecule further returned a reduction of FFV titer (FeFAB reporter cells) on cotransfection of pfe3 in the assay with feline APOBEC3 (feline) below 10 fold.

Turning to “FFV Bet truncated after amino acid 116 (mutant pFeFV-BBtr)”, in assay [1], the G→A exchanges per 100 nucleotides in FFV genomes with fe3 coexpressed (G→A exchanges per 100 nucleotides) is 1.05.

B1: human foamy virus (HFV) Bet protein, P89873 1-482 (protein)
chain: MDSYEKEESVASTSGIQDLQTLSELVGPENAGEGELTIAEEPEENPRRPRRYTKREVKCVSYHAYKEIEDKHPQHIKLQDWIPTPEEMIAQKVQNQDLGTILSFDVTCLKSITSLGRNDPGDDPSIMSHVLPVVTPWPMSQDHYAPTLFGILDRYYQGYLKSPATYQTWKFTCQVDPSGKRFMETQFWVPPLGQVNIQFYKNYQILTCCQAVDPFANIFHGTDEEMFDIDSGPDVWCSPSLCFKVIYEGAMGQKQEQKTWLCRLGHGHRMGACDYRKVDLYAMRQGKENPYGDRGDAALQYAYQVKRGCKAGCLASPVLNYKALQFHRTIMADFTNPRIGEGHLAHGYQAAMEAYGPQRGSNEERVWWNVTRNQGKQGGEYYREGGEEPHYPNTPAPHRRTWDERHKVLKLSSFATPSDIQRWTTKALPYGWKVVTESGNDYTSRRKIRTLTEMTQDEIRKRWESGYCDPFIDSGSDSDGPF
As to B1, in assay [2], the Bet-mediated rescue of marker gene transduction in the presence of different APOBEC3 molecules is below 100 fold.
